The values that follow come from patent US20230242902A1, “A HIGHLY ERROR-PRONE […] R[…] FOR TARGETED CONTINUOUS EVOLUTION IN VIVO” (The Regents of the University of California, priority 2017, published 2023).

The labels stand for the following.
B1: E298I: TP-DNAP1 variant (protein)
chain: MDYKDKALNDLRNVYADFDSLPLDFRQILIKDRATLLQKEDVEKKILERQEDAKKYAEYLKQSEIPERISLPNIKRHKGVSISFEETSEDMVLEPRPFIFDGLNIRCFRRETIFSLKNKILNMVKESSSFKNVSRQSVSFMYFKIFNKGKVIASTKSVNIYEDKIDERLEDLCNNFDDVLKKIIDVTYGYESLFVSETYSYVIFYAKSIYFPQPRCVNNWGNNIPNILTFDSFKLFTANKNNVSCIKQCSRFLWQKDFNTLEEMIEYKNGNICIVTPQLHINDVRDIKSFNDIRLYSISPIKTFSVIDNTITYLFYFKEHLGVIFNITKSRHDRRVTKFSPLSKFSDVKNITVCFDIESYFDPEKESNQVNIPFICCASIIYNKVIGNIVDFEGRDCVAQMIEYVVDICGELNISSVELIAHNGGGYDFHYILSSMYNPAAIKNILIRNNSFISFNFAHDGVKFSVKDSYSFLLCSLANASKAFLNEETFKKTDFPHHDLKTADDLYKVYKEWSSVNTEINHVVEKEKLLITSEHIVNFTKNDKSKTLIEWSKDYCRNDVLVLSKVWLEFKNAVEDIFNCELVDQTMTLAGLSYKLFQANMPFDVELRHPNKEDYFNMREALIGGRCISVNGIYKDVLCLDVKSLYPASMAFYDQPYGSFKRVSSRPKDELGIYYVRVTPNRNNKSNFFPIRSHNKITYNNFEESTYIAWYTNVDIDIGLSEGHNIEYIPFDSYGNIGYSWSKKGKIFEKYIKDVLYKLKIKYEKQNNKVKRNVIKIIMNSLWGKFAQKWVNFEYFIKSEDDIDFESEEAYKIWDTDFMLIKKIKESTYSSKPIQNGVFTLSWARYHMKSIWDAGAKEGAECIYSDTDSIFVHKEHFKKNAKFMLNGLKVPIIGSEVGQLELECEFDKLLCAGKKQYMGFYTYFQDGKPCIKEKKRFKGIPSNYIIPELYAHLLSGADKEAKIQFLKFRREWGSVKGYIENKTVKAT
B2: I708T: TP-DNAP1 variant (protein)
chain: MDYKDKALNDLRNVYADFDSLPLDFRQILIKDRATLLQKEDVEKKILERQEDAKKYAEYLKQSEIPERISLPNIKRHKGVSISFEETSEDMVLEPRPFIFDGLNIRCFRRETIFSLKNKILNMVKESSSFKNVSRQSVSFMYFKIFNKGKVIASTKSVNIYEDKIDERLEDLCNNFDDVLKKIIDVTYGYESLFVSETYSYVIFYAKSIYFPQPRCVNNWGNNIPNILTFDSFKLFTANKNNVSCIKQCSRFLWQKDFNTLEEMIEYKNGNICIVTPQLHINDVRDIKSFNDIRLYSESPIKTFSVIDNTITYLFYFKEHLGVIFNITKSRHDRRVTKFSPLSKFSDVKNITVCFDIESYFDPEKESNQVNIPFICCASIIYNKVIGNIVDFEGRDCVAQMIEYVVDICGELNISSVELIAHNGGGYDFHYILSSMYNPAAIKNILIRNNSFISFNFAHDGVKFSVKDSYSFLLCSLANASKAFLNEETFKKTDFPHHDLKTADDLYKVYKEWSSVNTEINHVVEKEKLLITSEHIVNFTKNDKSKTLIEWSKDYCRNDVLVLSKVWLEFKNAVEDIFNCELVDQTMTLAGLSYKLFQANMPFDVELRHPNKEDYFNMREALIGGRCISVNGIYKDVLCLDVKSLYPASMAFYDQPYGSFKRVSSRPKDELGIYYVRVTPNRNNKSNFFPIRSHNKITYNNFEESTYTAWYTNVDIDIGLSEGHNIEYIPFDSYGNIGYSWSKKGKIFEKYIKDVLYKLKIKYEKQNNKVKRNVIKIIMNSLWGKFAQKWVNFEYFIKSEDDIDFESEEAYKIWDTDFMLIKKIKESTYSSKPIQNGVFTLSWARYHMKSIWDAGAKEGAECIYSDTDSIFVHKEHFKKNAKFMLNGLKVPIIGSEVGQLELECEFDKLLCAGKKQYMGFYTYFQDGKPCIKEKKRFKGIPSNYIIPELYAHLLSGADKEAKIQFLKFRREWGSVKGYIENKTVKAT
B3: A709N: TP-DNAP1 variant (protein)
chain: MDYKDKALNDLRNVYADFDSLPLDFRQILIKDRATLLQKEDVEKKILERQEDAKKYAEYLKQSEIPERISLPNIKRHKGVSISFEETSEDMVLEPRPFIFDGLNIRCFRRETIFSLKNKILNMVKESSSFKNVSRQSVSFMYFKIFNKGKVIASTKSVNIYEDKIDERLEDLCNNFDDVLKKIIDVTYGYESLFVSETYSYVIFYAKSIYFPQPRCVNNWGNNIPNILTFDSFKLFTANKNNVSCIKQCSRFLWQKDFNTLEEMIEYKNGNICIVTPQLHINDVRDIKSFNDIRLYSESPIKTFSVIDNTITYLFYFKEHLGVIFNITKSRHDRRVTKFSPLSKFSDVKNITVCFDIESYFDPEKESNQVNIPFICCASIIYNKVIGNIVDFEGRDCVAQMIEYVVDICGELNISSVELIAHNGGGYDFHYILSSMYNPAAIKNILIRNNSFISFNFAHDGVKFSVKDSYSFLLCSLANASKAFLNEETFKKTDFPHHDLKTADDLYKVYKEWSSVNTEINHVVEKEKLLITSEHIVNFTKNDKSKTLIEWSKDYCRNDVLVLSKVWLEFKNAVEDIFNCELVDQTMTLAGLSYKLFQANMPFDVELRHPNKEDYFNMREALIGGRCISVNGIYKDVLCLDVKSLYPASMAFYDQPYGSFKRVSSRPKDELGIYYVRVTPNRNNKSNFFPIRSHNKITYNNFEESTYINWYTNVDIDIGLSEGHNIEYIPFDSYGNIGYSWSKKGKIFEKYIKDVLYKLKIKYEKQNNKVKRNVIKIIMNSLWGKFAQKWVNFEYFIKSEDDIDFESEEAYKIWDTDFMLIKKIKESTYSSKPIQNGVFTLSWARYHMKSIWDAGAKEGAECIYSDTDSIFVHKEHFKKNAKFMLNGLKVPIIGSEVGQLELECEFDKLLCAGKKQYMGFYTYFQDGKPCIKEKKRFKGIPSNYIIPELYAHLLSGADKEAKIQFLKFRREWGSVKGYIENKTVKAT
B4: I729F: TP-DNAP1 variant (protein)
chain: MDYKDKALNDLRNVYADFDSLPLDFRQILIKDRATLLQKEDVEKKILERQEDAKKYAEYLKQSEIPERISLPNIKRHKGVSISFEETSEDMVLEPRPFIFDGLNIRCFRRETIFSLKNKILNMVKESSSFKNVSRQSVSFMYFKIFNKGKVIASTKSVNIYEDKIDERLEDLCNNFDDVLKKIIDVTYGYESLFVSETYSYVIFYAKSIYFPQPRCVNNWGNNIPNILTFDSFKLFTANKNNVSCIKQCSRFLWQKDFNTLEEMIEYKNGNICIVTPQLHINDVRDIKSFNDIRLYSESPIKTFSVIDNTITYLFYFKEHLGVIFNITKSRHDRRVTKFSPLSKFSDVKNITVCFDIESYFDPEKESNQVNIPFICCASIIYNKVIGNIVDFEGRDCVAQMIEYVVDICGELNISSVELIAHNGGGYDFHYILSSMYNPAAIKNILIRNNSFISFNFAHDGVKFSVKDSYSFLLCSLANASKAFLNEETFKKTDFPHHDLKTADDLYKVYKEWSSVNTEINHVVEKEKLLITSEHIVNFTKNDKSKTLIEWSKDYCRNDVLVLSKVWLEFKNAVEDIFNCELVDQTMTLAGLSYKLFQANMPFDVELRHPNKEDYFNMREALIGGRCISVNGIYKDVLCLDVKSLYPASMAFYDQPYGSFKRVSSRPKDELGIYYVRVTPNRNNKSNFFPIRSHNKITYNNFEESTYIAWYTNVDIDIGLSEGHNIEYFPFDSYGNIGYSWSKKGKIFEKYIKDVLYKLKIKYEKQNNKVKRNVIKIIMNSLWGKFAQKWVNFEYFIKSEDDIDFESEEAYKIWDTDFMLIKKIKESTYSSKPIQNGVFTLSWARYHMKSIWDAGAKEGAECIYSDTDSIFVHKEHFKKNAKFMLNGLKVPIIGSEVGQLELECEFDKLLCAGKKQYMGFYTYFQDGKPCIKEKKRFKGIPSNYIIPELYAHLLSGADKEAKIQFLKFRREWGSVKGYIENKTVKAT
B5: I708M: TP-DNAP1 variant (protein)
chain: MDYKDKALNDLRNVYADFDSLPLDFRQILIKDRATLLQKEDVEKKILERQEDAKKYAEYLKQSEIPERISLPNIKRHKGVSISFEETSEDMVLEPRPFIFDGLNIRCFRRETIFSLKNKILNMVKESSSFKNVSRQSVSFMYFKIFNKGKVIASTKSVNIYEDKIDERLEDLCNNFDDVLKKIIDVTYGYESLFVSETYSYVIFYAKSIYFPQPRCVNNWGNNIPNILTFDSFKLFTANKNNVSCIKQCSRFLWQKDFNTLEEMIEYKNGNICIVTPQLHINDVRDIKSFNDIRLYSESPIKTFSVIDNTITYLFYFKEHLGVIFNITKSRHDRRVTKFSPLSKFSDVKNITVCFDIESYFDPEKESNQVNIPFICCASIIYNKVIGNIVDFEGRDCVAQMIEYVVDICGELNISSVELIAHNGGGYDFHYILSSMYNPAAIKNILIRNNSFISFNFAHDGVKFSVKDSYSFLLCSLANASKAFLNEETFKKTDFPHHDLKTADDLYKVYKEWSSVNTEINHVVEKEKLLITSEHIVNFTKNDKSKTLIEWSKDYCRNDVLVLSKVWLEFKNAVEDIFNCELVDQTMTLAGLSYKLFQANMPFDVELRHPNKEDYFNMREALIGGRCISVNGIYKDVLCLDVKSLYPASMAFYDQPYGSFKRVSSRPKDELGIYYVRVTPNRNNKSNFFPIRSHNKITYNNFEESTYMAWYTNVDIDIGLSEGHNIEYIPFDSYGNIGYSWSKKGKIFEKYIKDVLYKLKIKYEKQNNKVKRNVIKIIMNSLWGKFAQKWVNFEYFIKSEDDIDFESEEAYKIWDTDFMLIKKIKESTYSSKPIQNGVFTLSWARYHMKSIWDAGAKEGAECIYSDTDSIFVHKEHFKKNAKFMLNGLKVPIIGSEVGQLELECEFDKLLCAGKKQYMGFYTYFQDGKPCIKEKKRFKGIPSNYIIPELYAHLLSGADKEAKIQFLKFRREWGSVKGYIENKTVKAT
B6: I708V: TP-DNAP1 variant (protein)
chain: MDYKDKALNDLRNVYADFDSLPLDFRQILIKDRATLLQKEDVEKKILERQEDAKKYAEYLKQSEIPERISLPNIKRHKGVSISFEETSEDMVLEPRPFIFDGLNIRCFRRETIFSLKNKILNMVKESSSFKNVSRQSVSFMYFKIFNKGKVIASTKSVNIYEDKIDERLEDLCNNFDDVLKKIIDVTYGYESLFVSETYSYVIFYAKSIYFPQPRCVNNWGNNIPNILTFDSFKLFTANKNNVSCIKQCSRFLWQKDFNTLEEMIEYKNGNICIVTPQLHINDVRDIKSFNDIRLYSESPIKTFSVIDNTITYLFYFKEHLGVIFNITKSRHDRRVTKFSPLSKFSDVKNITVCFDIESYFDPEKESNQVNIPFICCASIIYNKVIGNIVDFEGRDCVAQMIEYVVDICGELNISSVELIAHNGGGYDFHYILSSMYNPAAIKNILIRNNSFISFNFAHDGVKFSVKDSYSFLLCSLANASKAFLNEETFKKTDFPHHDLKTADDLYKVYKEWSSVNTEINHVVEKEKLLITSEHIVNFTKNDKSKTLIEWSKDYCRNDVLVLSKVWLEFKNAVEDIFNCELVDQTMTLAGLSYKLFQANMPFDVELRHPNKEDYFNMREALIGGRCISVNGIYKDVLCLDVKSLYPASMAFYDQPYGSFKRVSSRPKDELGIYYVRVTPNRNNKSNFFPIRSHNKITYNNFEESTYVAWYTNVDIDIGLSEGHNIEYIPFDSYGNIGYSWSKKGKIFEKYIKDVLYKLKIKYEKQNNKVKRNVIKIIMNSLWGKFAQKWVNFEYFIKSEDDIDFESEEAYKIWDTDFMLIKKIKESTYSSKPIQNGVFTLSWARYHMKSIWDAGAKEGAECIYSDTDSIFVHKEHFKKNAKFMLNGLKVPIIGSEVGQLELECEFDKLLCAGKKQYMGFYTYFQDGKPCIKEKKRFKGIPSNYIIPELYAHLLSGADKEAKIQFLKFRREWGSVKGYIENKTVKAT

The test system of this assay is p1. The assay is described as follows: p1 copy number by p1-encoded mKate2 fluorescence. The assay is classed as cell-based, S. cerevisiae. The note with it: OR-Y24, measured in triplicate. The method, boiled down: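 Yeast OR-Y24 strains carrying TP-DNAP1 variants were grown to saturation from a 1:10,000 dilution, and p1-encoded mKate2 fluorescence was measured by flow cytometry (ex/em 561/620 nm). Values were converted to copy number via a linear calibration against qPCR of p1-encoded LEU2 versus genomic LEU3, or by plate-reader OD600-normalized fluorescence relative to w.t. TP-DNAP1.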
As for B1, the “Mean fold-increase over w.t. (p1 copy number)” value (shortened to “Mean fold-increase”) was 2.34 fold. For B2, the “Mean fold-increase” value is 2.41 fold. For B3, the “Mean fold-increase” value worked out at 2.01 fold. For the molecule B4, the “Mean fold-increase” value is given as 1.7 fold. The value for B5 was 2.32 fold; that for B6 was 2.01 fold.
